# Measurements taken from patent US20210347873A1 (SHANGHAI PHARMAEXPLORER, published 2021).
# Read-outs that look alike come from different tables or passages of the source.
# B1: c93C6F10D3 (antibody, V domains shown)
# VH: EVQLVESGGGLVTPGGSLKLSCVASGFAFSTYGMSWVRQTPERRLEWVAYISGGGGSIYYPDSVKGRFTISRDNAKNILYLQMSSLKSEDTAMYHCTRHPDLLLRYDYALDHWGQGTSVTVSS
# VL: DIQMTQSPASLSASVGETVTITCRASENIHIYLAWYQQKQGKSPQLLVYNGKTLADGVPSRFSGSGSGTQYSLKINTLQPEDFGNYYCQHFWNSTWTFGGGTKLEIK
# B2: L1D12 (antibody, V domains shown)
# VH: QVQLVQSGGGLVQPGGSLRLSCAASGFTVSSNYMSWVRQAPGKGLEWVSVIYSGGSTYYADSVKGRFTISRDNSKNTLYLQMNSLRAEDTAVYYCARGFHDILTGYGMDVWGQGTTVTVSS
# VL: SSELTQDPAVSVALGQTVRITCQGDSLRNYYAGWYQQKPGQAPVLVIYGKNNRPSGIPDRFSGSSSGNTASLTITGTQAEDEADYYCSSRDNSGTHLVEFGGGTKLTVL
# B3: c8E7D9C7F5 (antibody, human IgG1, V domains shown)
# VH: QVQLQQSGVELARPGASVKLSCKASGYTFTSYGISWVKQRTGQALEWIGEIYPRSGNTYYNEKFKGKATLTADKSSSTAYMELRSLTSEDSAVYFCARSGPITTLVATDYGMDYWGQGTSVTVSS
# VL: DIVLTQSPASLAVSLGQRATISCRASKSVSTSSYSYMHWYQQKPGQPPKLLIKFASNLESGVPARFSGSGSGTDFTLNIHPVEEEDAATYYCQHSREFPYTFGGGTKLEIK
# notes: also called BLyS chimeric antibody
# B4: c67A2E1D10 (antibody, human IgG1, V domains shown)
# VH: EVQLQQSGAELVKPGASVKLSCTASGFNIKNYYMHWVKQRTEEGLEWIGRIDPEDGETKYAPKFQAKATITADTSSNTAYLQLSSLTSEDTAVYFCARKGYYGNYGAWFAYWGQGTLVTVSA
# VL: DIQMTQSPASLSVSVGETVTITCRASEDLYSNLAWYQQKQGKSPQLLVYAATFLADGVPSRFSGSGSGTQYSLKINSLQSEDFGNYYCQHFWGTPPTFGGGTKLEIK
# notes: as for B3
# B5: c93C6F10D3 (antibody, human IgG1, V domains shown)
# VH: B1 VH
# VL: B1 VL
# notes: as for B3
# B6: h8E7D9C7F5-1 (antibody, human IgG1, V domains shown)
# VH: EVQLVQSGAEVKKPGASVKVSCKASGYTFTSYGISWVRQAPGQGLEWMGEIYPRSGNTYYNEKFKGRVTMTTDTSTSTAYMELRSLRSDDTAVYYCARSGPITTLVATDYGMDYWGQGTTVTVSS
# VL: DIVMTQSPDSLAVSLGERATINCRASKSVSTSSYSYMHWYQQKPGQPPKLLIKFASNLESGVPDRFSGSGSGTDFTLTISSLQAEDVAVYYCQHSREFPYTFGGGTKVEIK
# notes: Humanized (VH.1 / Vk.1); also called humanized BLyS antibody
# B7: h97A3C2H4-9 (antibody, human IgG1, V domains shown)
# VH: EVQLVESGGGLVQPGGSLRLSCAASGFTFSTYTMSWVRQAPGKRLEWVAYISYGGGSTSYPDTVKGRFTISRDNAKNSLYLQMNSLRAEDTAVYYCTRHVTVVENSMDYWGQGTTVTVSS
# VL: DILLTQSPDFQSVTPKEKVTITCRASQSIGTSIHWYQQKTDQSPKLLIKYVSESFSGTPSRFSGSGSGTDFTLTINSLEAEDAATYYCQQTHSWPWTFGGGTKVEIK
# notes: Humanized (VH.1b / Vk.1d); also called humanized BLyS antibody
# B8: 35E6F7C3 (antibody, V domains shown)
# VH: EVQLQQSGAELVKPGASVKLSCTAAGFNIQDTYIHWVKQRPEQGLEWIGRIDPANANTVYDPKFQGKATITADTSSNTAYLQVSSLTSEDTAVYYCASPVITAGFAYWGQGTLVTVSA
# VL: QIVLTQSPAIMSASPGEKVTMTCGASSSVNYVHWYQQKSGTSPKRWIYDTSKLASGVPARFSGSGSGTSYSLTISSMEAEDAATYYCQQWTRSPLTFGAGTKVELK
# notes: Mouse hybridoma antibody purified on Protein G
# What was measured:
# [1] = biological target: T1, extracellular domain of human BLyS protein (hBLyS-ECD), His-tagged, Ala134-Leu285 (human, UniProt Q9Y275 134-285); assay: cell-based or functional assay
# T1 sequence (Q9Y275 134-285): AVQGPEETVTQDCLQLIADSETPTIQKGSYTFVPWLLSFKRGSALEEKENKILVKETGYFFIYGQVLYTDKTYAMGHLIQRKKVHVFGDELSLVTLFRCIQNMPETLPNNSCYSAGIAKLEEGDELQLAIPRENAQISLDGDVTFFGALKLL
# [2] = biological target: T1, extracellular domain of human BLyS …; assay: cell-based or functional assay; remark: listed apart in the source
# [3] = biological target: T1, extracellular domain of human BLyS …; assay: SPR (Biacore), antibody captured by anti-human Fc, hBLyS-ECD as analyte
# [4] = biological target: T2, biotinylated hBLyS-ECD (human, UniProt Q9Y275 134-285, biotinylated with Biotin-X-X-NHS (molar ratio 7:1), sites not stated); assay: ELISA: biotinylated hBLyS-ECD captured on streptavidin, antibody titrated, HRP secondary antibody
# T2 construct: The hBLyS-ECD of Embodiment 1 after biotinylation (Embodiment 2); also called biotinylated immunogen; BLyS protein; not shown: His tag of the pCPC vector
# T2 sequence (Q9Y275 134-285): as above
# [5] = biological target: T2, biotinylated hBLyS-ECD; assay: as above; remark: listed apart in the source
# [6] = biological target: T3, biotinylated hBLyS-ECD (human, UniProt Q9Y275 134-285, biotinylated with Biotin-X-X-NHS (molar ratio 7:1); sites not stated); assay: competition ELISA; competitor 8E7D9C7F5
# T3 construct: also called biotinylated immunogen; biotinylated hBLvS-ECD
# T3 sequence (Q9Y275 134-285): as above
# Protocol: (§1) The purified human BLyS antibody and hybridoma antibody were subjected to competitive enzyme-linked immunosorbent assay and the epitopes binding by different antibodies were analyzed.
# (§2) Purified BLyS antibody was first diluted to a final concentration of 1.0 μg/mL with PBS, then aliquoted into a 96-well ELISA plate at 50 μL per well, and the plate was subsequently sealed with plastic film and incubated at 4° C. overnight. On the next day the plate was rinsed four times with the plate washing buffer [PBS buffer containing 0.05% (v/v) Tween20] and mixed with blocking solution [PBS buffer containing 0.05% (v/v) Tween20 and 1% (w/w) BSA], and then blocked at 37° C. for 1 hour. The blocking solution was removed, and the competitive antibody and IgG control were diluted to a final concentration of 40 μg/mL with PBS and then aliquoted into the 96-well ELISA plate at 50 μL per well. The biotinylated hBLyS-ECD was then diluted with PBS to a final concentration of 2 ng/mL and pipetted into the 96-well ELISA plate at 50 μL per well. The final concentration of competitive antibody and hBLyS-ECD was 20 μg/mL and 1 ng/mL, respectively. After incubation at 37° C. for 1 hour, the plate was rinsed four times with the plate washing buffer [PBS buffer containing 0.05% (v/v) Tween20]. 100 μL per well of HRP-labeled (horseradish peroxidase) streptavidin (purchased from Sigma) was added into the plate and the plate was incubated at 37° C. for 1 hour. The plate was then washed four times with the plate washing buffer [PBS buffer containing 0.05% (v/v) Tween20]. 100 μL of TMB substrate was aliquoted into each well and after incubation at room temperature for 5 minutes, 100 μL of stop solution (1.0 N HCl) was aliquoted into each well. A₄₅₀ₙₘ values were read by an ELISA plate reader (SpectraMax M5e, purchased from Molecular Device) and the results were shown in Tables 18A-18B. […] The data shown in the table is the inhibitory rate (%) of the binding level of the original antibody to hBLyS-ECD after addition of the competitive antibody.
# [7] = biological target: T3, biotinylated hBLyS-ECD; assay: competition ELISA; competitor 67A2E1D10
# Protocol: as §1, §2
# [8] = biological target: T3, biotinylated hBLyS-ECD; assay: competition ELISA; competitor 97A3C2H4
# Protocol: as §1, §2
# [9] = biological target: T3, biotinylated hBLyS-ECD; assay: competition ELISA; competitor 93C6F10D3
# Protocol: as §1, §2
# [10] = biological target: T3, biotinylated hBLyS-ECD; assay: competition ELISA; competitor 78C11D2D12
# Protocol: as §1, §2
# [11] = biological target: T3, biotinylated hBLyS-ECD; assay: competition ELISA; competitor 111D10D6G3
# Protocol: as §1, §2
# [12] = biological target: T3, biotinylated hBLyS-ECD; assay: competition ELISA; competitor 35E6F7C3
# Protocol: as §1, §2
binder,measurement,setting,value
B1,"OD450 nm (as headed), mouse B lymphocyte proliferation; antibody 0 nM",[1],4320
same,"OD450 nm (as headed), mouse B lymphocyte proliferation; antibody 0.000256 nM",[1],4600
same,"OD450 nm (as headed), mouse B lymphocyte proliferation; antibody 0.00128 nM",[1],4520
same,"OD450 nm (as headed), mouse B lymphocyte proliferation; antibody 0.0064 nM",[1],4920
same,"OD450 nm (as headed), mouse B lymphocyte proliferation; antibody 0.032 nM",[1],4520
same,"OD450 nm (as headed), mouse B lymphocyte proliferation; antibody 0.16 nM",[1],4300
same,"OD450 nm (as headed), mouse B lymphocyte proliferation; antibody 0.8 nM",[1],1090
same,"OD450 nm (as headed), mouse B lymphocyte proliferation; antibody 4 nM",[1],527
same,"OD450 nm (as headed), mouse B lymphocyte proliferation; antibody 20 nM",[1],434
same,"OD450 nm (as headed), mouse B lymphocyte proliferation; antibody 100 nM",[1],389
same,"Proportion of B lymphocytes in splenocytes (%), in vivo in mice",[2],27.1%
same,Kd,[3],0.386 nM
same,koff,[3],0.000212 s⁻¹
same,kon,[3],549000 M⁻¹ s⁻¹
B2,"Proportion of B lymphocytes in splenocytes (%), in vivo in mice",[2],26.8%
B3,EC50 (read off the curve),[4],~0.1 nM
same,EC50 (read off the curve),[5],~0.1 nM
B4,EC50 (read off the curve),[5],~0.1 nM
B5,EC50 (read off the curve),[5],~0.07 nM
B6,EC50 (read off the curve),[4],~0.08 nM
B7,EC50 (read off the curve),[4],0.1 to 0.2 nM
B8,inhibitory rate (%),[6],27%
same,inhibitory rate (%),[7],33%
same,inhibitory rate (%),[8],26%
same,inhibitory rate (%),[9],33%
same,inhibitory rate (%),[10],36%
same,inhibitory rate (%),[11],38%
same,inhibitory rate (%),[12],91%
